Data reported in patent US20250163122A1, “COMPOSITIONS AND METHODS FOR TREATING AIRWAY MUCUS DYSFUNCTION” (BOARD OF REGENTS, THE UNIVERSITY OF TEXAS SYSTEM, priority 2022, published 2025).
Entries after “also recorded” stand apart in the source; their conditions may differ. Where a SMILES comes first, the peptide text is derived from it. Bridges are numbered along the chain shown (N, C = ends). [ ]: non-standard residue; d: D form. S5 = C=CCCC[C@](C)(N)C(=O)O

How the values were obtained:
[1] = CD spectroscopy, α-helical content of peptides; assay type: physicochemical; conditions: for helical content, ranking in words: among the peptides tested
Experimental: CD spectroscopy. CD spectra were measured with an AVIV stop-flow CD spectropolarimeter at 190 to 250 nm using a cell with a 1 mm path-length. The sample containing […] of synthesized peptides in PBS buffer (137 mM NaCl, 2.7 mM KCl, 10 mM Na2HPO4, and 2 mM KH2PO4, pH 7.4) was measured at 20° C. For the correction of the baseline error, the signal from a blank run with PBS buffer was subtracted from all the experimental spectra. The α-helical content of each peptide was calculated by dividing the mean residue ellipticity [φ]222obs by the reported [φ]222obs for a model helical decapeptide (Yang et al., 1986).

[2] = target: T1, neuronal SNAREs and Syt1_QM (Rattus norvegicus, UniProt P21707, E295A/R281A/R398A/R399A/Y338W); assay: Single vesicle content mixing assay, neuronal SNAREs and Syt1_QM; assay type: biochemical; conditions: 10 μM peptide, raw count; for Ca2+ triggered fusion events: 500 μM Ca2+
T1 construct: made in house
T1 sequence (P21707 whole entry R281A/E295A/Y338W/R398A/R399A, the tested form may be a part): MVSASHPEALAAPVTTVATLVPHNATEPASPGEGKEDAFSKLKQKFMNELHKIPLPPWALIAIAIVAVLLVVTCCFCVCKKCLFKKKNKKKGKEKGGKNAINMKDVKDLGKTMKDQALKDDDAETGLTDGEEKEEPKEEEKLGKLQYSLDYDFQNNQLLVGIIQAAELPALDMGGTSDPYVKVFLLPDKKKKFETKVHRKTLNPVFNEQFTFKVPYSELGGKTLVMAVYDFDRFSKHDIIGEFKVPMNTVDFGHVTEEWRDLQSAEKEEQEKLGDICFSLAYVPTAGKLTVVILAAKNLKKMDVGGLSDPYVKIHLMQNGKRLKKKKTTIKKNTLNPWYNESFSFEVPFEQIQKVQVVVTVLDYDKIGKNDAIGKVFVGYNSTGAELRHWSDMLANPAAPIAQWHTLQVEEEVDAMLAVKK
From the text: (§1) For single vesicle content mixing assay, the lipid composition of the SV, SG, VAMP2, or VAMP8 vesicles was phosphatidylcholine (PC) (48%), phosphatidylethanolamine (PE) (20%), phosphatidylserine (PS) (12%), and cholesterol (20%); for both the neuronal and airway PM vesicles the lipid composition was Brain Total Lipid Extract supplemented 3.5 mol % PIP2, and 0.1 mol % biotinylated phosphatidylethanolamine (PE).
(§2) The reconstitution method for neuronal PM and SV vesicles was described in detail previously (see Lai et al., 2017; Kyoung et al., 2011; and Lai et al., 2014). The same methods were used for airway PM, SG, VAMP2, and VAMP8 vesicles. Dried lipid films were dissolved in 110 mM OG buffer containing purified proteins at protein-to-lipid ratios of 1:200 for VAMP2 and Stx1A for SV and neuronal PM vesicles, respectively (or 1:200 for VAMP8 and Stx3 for SG and airway PM vesicles, respectively), and 1:800 for Syt1 for SV vesicles (or 1:1200 for Syt2 for SG vesicles).
(§3) A 3-5 fold excess of SNAP-25A or SNAP-23 (with respect to Stx1A or Stx3) and 3.5 mol % PIP2 were added to the protein-lipid mixture for neuronal or airway PM vesicles. […] For the preparation of SV, SG, VAMP2, or VAMP8 vesicles for single vesicle content mixing assay, 50 mM sulforhodamine B (Thermo Fisher Scientific) was added to the protein-lipid mixture. The vesicles subsequently formed during size exclusion chromatography using a Sepharose CL-4B column, packed under near constant pressure by gravity with a peristaltic pump (GE Healthcare) in a 5.5 ml column with a ˜5 ml bed volume that was equilibrated with buffer V (20 mM HEPES, pH 7.4, 90 mM NaCl) supplemented with 20 μM EGTA and 0.1% 2-mercaptoethanol. The eluent was subjected to dialysis into 21 of detergent-free buffer V supplemented with 20 μM EGTA, 0.1% 2-mercaptoethanol, 5 g of Bio-beads SM2 (Bio-Rad) and 0.8 g/L Chelex 100 resin (Bio-Rad). After 4 hours, the buffer was exchanged with 21 of fresh buffer V supplemented with 20 μM EGTA, 0.1% 2-mercaptoethanol and Bio-beads, and the dialysis continued for another 12 h (overnight). […] For ensemble lipid mixing assay, the reconstitution method is the same as that for the single vesicle content mixing assay, except that 50 mM sulforhodamine B was omitted for all the steps.
(§4) Single vesicle content mixing experiments. All single vesicle fusion and single molecule experiments were performed on a prism-type total internal reflection fluorescence (TIRF) microscope using 532 nm (green) laser (CrystaLaser) excitation. Two observation channels were created by a 640 nm single-edge dichroic beamsplitter (FF640-FDi01-25x36, Shemrock): one channel was used for the fluorescence emission intensity of the content dyes and the other channel for that of the Cy5 dye that are part of the injected Ca^2+-solution. The two channels were recorded on two adjacent rectangular areas (45×90 m^2) of a charge-coupled device (CCD) camera (iXon+DV 897E, Andor Technology). The imaging data were recorded with the smCamera software developed by Taekjip Ha, Johns Hopkins University, Baltimore.
(§5) Flow chambers were assembled by creating a “sandwich” consisting of a quartz slide and a glass coverslip that were both coated with polyethylene glycol (PEG) molecules consisting 0.1% (w/v) biotinylated-PEG except when stated otherwise, and using double-sided tape to create up to five flow-chambers.
(§6) The single vesicle content mixing assay described in Lai et al. (2014) was used to monitor vesicle-vesicle association, Ca^2+-independent, and Ca^2+-triggered fusion. The surface of the quartz slides was passivated by coating the surface with polyethylene glycol (PEG) molecules which alleviated non-specific binding of vesicles. The same protocol and quality controls (surface coverage and non-specific binding) were used as described previously (Kyoung et al., 2011; Kyoung et al., 2012) except that PEG-SVA (Laysan Bio) instead of mPEG-SCM (Laysan Bio) was used since it has a longer half-life. […]

[3] = target: airway SNAREs and Syt2 (Rattus norvegicus, UniProt P29101); assay: Single vesicle content mixing assay, airway SNAREs and Syt2 (airway PM and SG vesicles); assay type: biochemical; conditions: for Ca2+ triggered fusion events / Ca2+ independent fusion events: 10 μM peptide, raw count; for Ca2+ triggered fusion events: 500 μM Ca2+
Sequence of airway SNAREs and Syt2 (P29101 whole entry, the tested form may be a part): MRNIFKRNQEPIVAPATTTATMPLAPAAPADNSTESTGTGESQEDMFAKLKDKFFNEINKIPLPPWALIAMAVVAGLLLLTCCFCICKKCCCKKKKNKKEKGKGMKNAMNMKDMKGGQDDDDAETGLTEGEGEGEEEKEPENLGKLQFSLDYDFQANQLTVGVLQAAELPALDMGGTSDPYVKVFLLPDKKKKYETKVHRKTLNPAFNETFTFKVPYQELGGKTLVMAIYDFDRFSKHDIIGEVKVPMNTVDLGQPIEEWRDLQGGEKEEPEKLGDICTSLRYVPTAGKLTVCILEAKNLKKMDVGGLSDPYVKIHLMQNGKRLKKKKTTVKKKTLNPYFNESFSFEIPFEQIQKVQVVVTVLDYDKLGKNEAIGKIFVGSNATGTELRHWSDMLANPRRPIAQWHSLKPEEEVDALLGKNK
From the text: as §1, §2, §3, §4, §5, §6

[4] = target: Syt1 C2B (Rattus norvegicus, UniProt P21707); assay: Bulk fluorescence anisotropy binding, Syt1 C2B; conditions: Cy3 labeled peptide
Sequence of Syt1 C2B (P21707 271-421): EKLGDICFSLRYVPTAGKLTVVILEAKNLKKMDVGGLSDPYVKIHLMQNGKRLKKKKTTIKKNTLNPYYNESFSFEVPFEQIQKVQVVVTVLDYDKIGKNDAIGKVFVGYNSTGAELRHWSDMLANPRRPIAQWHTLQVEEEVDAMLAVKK
Experimental: (§7) Bulk fluorescence anisotropy measurements. In the bulk fluorescence anisotropy experiments, the P0 and SP9 peptides were labeled with the fluorescent dye Cy3 at the C-terminus. Anisotropy was measured with a Tecan Infinite […] fluorimeter using an excitation wavelength of 530±5 nm and emission wavelength of 580±5 nm at 27.2° C. The fluorescent dye labeled samples were diluted to 10 nM concentration in TBS (20 mM Tris, pH 7.5, 150 mM NaCl, 0.5 mM TCEP) for optimal read out.

[5] = target: Syt2 C2B (Rattus norvegicus, UniProt P29101); assay: Bulk fluorescence anisotropy binding, Syt2 C2B; conditions: Cy3 labeled peptide
Sequence of Syt2 C2B (P29101 272-422): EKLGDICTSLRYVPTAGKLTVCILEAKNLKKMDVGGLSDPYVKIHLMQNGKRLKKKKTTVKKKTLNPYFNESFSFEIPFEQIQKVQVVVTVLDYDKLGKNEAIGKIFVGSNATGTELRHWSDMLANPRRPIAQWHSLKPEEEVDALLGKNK
Experimental: as §7

| Compound | helical content, ranking in words [1] | Ca2+ triggered fusion events [2] | Ca2+ independent fusion events [2] | Ca2+ triggered fusion events [3] | Ca2+ independent fusion events [3] | helicity / helical content ([1]; in solution, CD [φ]222 vs model helical decapeptide) [%] | binding to C2B domain of Syt1 [4] | binding to C2B domain of Syt2 [5] | effect on Ca2+-triggered cumulative fusion probability ([3]; up to 10 μM peptide) | effect on intrinsic Ca2+-independent fusion probability ([3]; up to 10 μM peptide) |
| --- | --- | --- | --- | --- | --- | --- | --- | --- | --- | --- |
| CC[C@H](C)[C@H](NC(=O)[C@]1(C)CCCC=CCCC[C@](C)(NC(=O)[C@H](CCC(=O)O)NC(=O)[C@H](CCC(=O)O)NC(C)=O)C(=O)N[C@@H](CCCCN)C(=O)N[C@@H](CC(=O)O)C(=O)N[C@@H](C)C(=O)N1)C(=O)N[C@@H](CCCNC(=N)N)C(=O)N[C@@]1(C)CCCC=CCCC[C@@](C)(C(=O)N[C@@H](CC(=O)O)C(=O)N[C@@H](CCC(=O)O)C(=O)N[C@@H](CCC(N)=O)C(=O)N[C@@H](CS)C(N)=O)NC(=O)[C@H](CCSC)NC(=O)[C@H](C(C)C)NC(=O)[C@H](CC(C)C)NC1=O [SP9, Ac-EE(S5)KDA(S5)IR(S5)LVM(S5)DEQC-amide] (Ac-EE[S5]KDA[S5]IR[S5]LVM[S5]DEQC-NH2; staple 3-7, 10-14) | largest helical content; also recorded: highest α-helicity | 260 | 242 | 250 | 274 | – | – | – | – | – |
| Ac-SKD(S5)GIR(S5)LV(S5)LDE(S5)GEQL-amide (Ac-SKD[S5]GIR[S5]LV[S5]LDE[S5]GEQL-NH2; staple 11-15, 4-8; SMILES CC[C@H](C)[C@@H]1NC(=O)CNC(=O)[C@@](C)(NC(=O)[C@H](CC(=O)O)NC(=O)[C@H](CCCCN)NC(=O)[C@H](CO)NC(C)=O)CCCC=CCCC[C@@](C)(C(=O)N[C@@H](CC(C)C)C(=O)N[C@H](C(=O)N[C@@]2(C)CCCC=CCCC[C@@](C)(C(=O)NCC(=O)N[C@@H](CCC(=O)O)C(=O)N[C@@H](CCC(N)=O)C(=O)N[C@@H](CC(C)C)C(N)=O)NC(=O)[C@H](CCC(=O)O)NC(=O)[C@H](CC(=O)O)NC(=O)[C@H](CC(C)C)NC2=O)C(C)C)NC(=O)[C@H](CCCNC(=N)N)NC1=O) [SP10] | largest helical content | 367 | 252 | 273 | 327 | – | – | – | – | – |
| Ac-SKD(S5)GIR(S5)LVMLDE(S5)GEQ(S5)DR-amide (Ac-SKD[S5]GIR[S5]LVMLDE[S5]GEQ[S5]DR-NH2; staple 15-19, 4-8; SMILES CC[C@H](C)[C@@H]1NC(=O)CNC(=O)[C@@](C)(NC(=O)[C@H](CC(=O)O)NC(=O)[C@H](CCCCN)NC(=O)[C@H](CO)NC(C)=O)CCCC=CCCC[C@@](C)(C(=O)N[C@@H](CC(C)C)C(=O)N[C@H](C(=O)N[C@@H](CCSC)C(=O)N[C@@H](CC(C)C)C(=O)N[C@@H](CC(=O)O)C(=O)N[C@@H](CCC(=O)O)C(=O)N[C@@]2(C)CCCC=CCCC[C@@](C)(C(=O)N[C@@H](CC(=O)O)C(=O)N[C@@H](CCCNC(=N)N)C(N)=O)NC(=O)[C@H](CCC(N)=O)NC(=O)[C@H](CCC(=O)O)NC(=O)CNC2=O)C(C)C)NC(=O)[C@H](CCCNC(=N)N)NC1=O) [SP1] | largest helical content | 282 | 226 | 275 | 251 | – | – | – | – | – |
| Ac-SKDA(S5)IRT(S5)VM(S5)DEQ(S5)EQL-amide (Ac-SKDA[S5]IRT[S5]VM[S5]DEQ[S5]EQL-NH2; staple 12-16, 5-9; SMILES CC[C@H](C)[C@@H]1NC(=O)[C@@](C)(NC(=O)[C@H](C)NC(=O)[C@H](CC(=O)O)NC(=O)[C@H](CCCCN)NC(=O)[C@H](CO)NC(C)=O)CCCC=CCCC[C@@](C)(C(=O)N[C@H](C(=O)N[C@@H](CCSC)C(=O)N[C@@]2(C)CCCC=CCCC[C@@](C)(C(=O)N[C@@H](CCC(=O)O)C(=O)N[C@@H](CCC(N)=O)C(=O)N[C@@H](CC(C)C)C(N)=O)NC(=O)[C@H](CCC(N)=O)NC(=O)[C@H](CCC(=O)O)NC(=O)[C@H](CC(=O)O)NC2=O)C(C)C)NC(=O)[C@H]([C@@H](C)O)NC(=O)[C@H](CCCNC(=N)N)NC1=O) [SP4] | largest helical content | 248 | 222 | 231 | 237 | – | – | – | – | – |
| EESKDAGIRTLVMLDEQGEQLD [Peptide P0, non-stapled SNAP-25A fragment used as a control, reference compound] | – | – | – | 219 | 113 | 5 | no binding | no binding | no effect | no effect |
